Measured values taken from article PMC11675717, “Evolutionary Adaptations in Biliverdin Reductase B: Insights into Coenzyme Dynamics and Catalytic Efficiency” (International Journal of Molecular Sciences, 2024).

Substrate: Cc1cc2nc3c(=O)[nH]c(=O)nc-3n(C[C@H](O)[C@H](O)[C@H](O)COP(=O)(O)OP(=O)(O)OC[C@H]3O[C@@H](n4cnc5c(N)ncnc54)[C@H](O)[C@@H]3O)c2cc1C
Experiment: purified protein
Assay type: biochemical, Homo sapiens
Details: co-substrate NADPH 400 µM; enzyme 20 µM

Protein	Km [µM]	kcat [s⁻¹]
human BLVRB (Homo sapiens) (protein, pET21) AVKKIAIFGATGQTGLTTLAQAVQAGYEVTVLVRDSSRLPSEGPRPAHVVVGDVLQAADVDKTVAGQDAVIVLLGTRNDLSPTTVMSEGARNIVAAMKAHGVDKVVACTSAFLLWDPTKVPPRLQAVTDDHIRMHKVLRESGLKYVAVMPPHIGDQPLTGAYTVTLDGRGPSRVISKHDLGHFMLRCLTTDEYDGHSTYPSHQYQ	242 ± 36	0.16 ± 0.03
human BLVRB (Homo sapiens; T164S) (protein, pET21) AVKKIAIFGATGQTGLTTLAQAVQAGYEVTVLVRDSSRLPSEGPRPAHVVVGDVLQAADVDKTVAGQDAVIVLLGTRNDLSPTTVMSEGARNIVAAMKAHGVDKVVACTSAFLLWDPTKVPPRLQAVTDDHIRMHKVLRESGLKYVAVMPPHIGDQPLTGAYSVTLDGRGPSRVISKHDLGHFMLRCLTTDEYDGHSTYPSHQYQ	171 ± 33	0.1 ± 0.03
